Results reported in US20040137579A1, “Protein complexes having factor VIII:C activity and production thereof” (Chiron Corporation, published 2004).

Columns and labels:
[1] = target: Factor VIII:C Mr 80 K polypeptide (FVIII-LC) encoded by pSVF8-80 (human) (UniProt P00451)
[2] = target: Factor VIII:C Mr 80 K polypeptide (FVIII-LC) encoded by pSVF8-80 (human) (UniProt P00451); remark: listed apart in the source
[3] = target: Factor VIII:C Mr 80 K polypeptide (FVIII-LC) encoded by pSVF8-80 (human) (UniProt P00451); remark: listed apart in the source
[4] = target: Factor VIII:C Mr 80 K polypeptide (FVIII-LC) encoded by pSVF8-80 (human) (UniProt P00451); remark: listed apart in the source
[5] = target: Factor VIII:C Mr 80 K polypeptide (FVIII-LC) encoded by pSVF8-80 (human) (UniProt P00451); remark: listed apart in the source
[6] = target: Factor VIII:C Mr 80 K polypeptide (FVIII-LC) encoded by pSVF8-80 (human) (UniProt P00451); remark: listed apart in the source
[7] = target: Factor VIII:C light chain encoded by pSVF8-80AT (alpha1-antitrypsin signal peptide) (human, UniProt P00451); assay: cell-based or functional assay
[8] = target: T1, Factor VIII:C 80 K light chain encoded by pSVF8-80A (human, UniProt P00451); assay: cell-based or functional assay
T1 chain: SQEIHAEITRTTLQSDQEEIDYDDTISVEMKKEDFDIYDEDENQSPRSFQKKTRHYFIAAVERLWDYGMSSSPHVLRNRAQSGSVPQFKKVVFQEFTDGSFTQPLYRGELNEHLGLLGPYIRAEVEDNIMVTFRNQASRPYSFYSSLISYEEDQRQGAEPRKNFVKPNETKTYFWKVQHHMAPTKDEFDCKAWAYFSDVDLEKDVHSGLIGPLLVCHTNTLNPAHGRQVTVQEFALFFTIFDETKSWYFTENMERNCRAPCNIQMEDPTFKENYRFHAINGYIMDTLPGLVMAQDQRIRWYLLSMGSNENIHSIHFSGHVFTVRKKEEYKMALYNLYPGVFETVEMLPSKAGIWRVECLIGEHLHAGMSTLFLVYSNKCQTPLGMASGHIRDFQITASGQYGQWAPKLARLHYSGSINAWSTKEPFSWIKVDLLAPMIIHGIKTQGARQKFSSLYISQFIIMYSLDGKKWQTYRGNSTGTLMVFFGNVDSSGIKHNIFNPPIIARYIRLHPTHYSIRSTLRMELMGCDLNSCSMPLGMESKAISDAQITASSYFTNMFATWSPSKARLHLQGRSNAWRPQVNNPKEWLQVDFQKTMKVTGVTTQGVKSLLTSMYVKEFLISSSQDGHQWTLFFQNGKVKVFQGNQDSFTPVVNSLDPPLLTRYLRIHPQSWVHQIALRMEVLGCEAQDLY

[9] = target: T2, Factor VIII:C 80 K light chain encoded by pSVF8-80KG (human, UniProt P00451); assay: cell-based or functional assay
T2 chain: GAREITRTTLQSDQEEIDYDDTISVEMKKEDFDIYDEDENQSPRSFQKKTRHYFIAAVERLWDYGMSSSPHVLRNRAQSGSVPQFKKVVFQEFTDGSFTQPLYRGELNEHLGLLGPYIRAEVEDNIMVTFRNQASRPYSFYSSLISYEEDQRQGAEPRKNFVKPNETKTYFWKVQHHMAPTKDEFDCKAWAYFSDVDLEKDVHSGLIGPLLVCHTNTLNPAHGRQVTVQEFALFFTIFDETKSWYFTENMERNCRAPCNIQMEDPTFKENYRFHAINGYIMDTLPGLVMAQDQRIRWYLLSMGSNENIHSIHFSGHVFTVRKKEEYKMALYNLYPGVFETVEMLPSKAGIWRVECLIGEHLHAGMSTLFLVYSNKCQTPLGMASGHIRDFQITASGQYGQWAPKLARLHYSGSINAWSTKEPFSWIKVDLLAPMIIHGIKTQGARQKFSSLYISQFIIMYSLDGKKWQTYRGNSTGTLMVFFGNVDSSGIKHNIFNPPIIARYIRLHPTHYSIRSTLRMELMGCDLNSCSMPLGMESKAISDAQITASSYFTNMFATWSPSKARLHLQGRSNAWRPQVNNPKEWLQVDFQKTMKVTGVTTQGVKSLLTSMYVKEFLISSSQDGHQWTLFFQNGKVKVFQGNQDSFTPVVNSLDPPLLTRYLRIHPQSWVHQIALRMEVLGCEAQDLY

[10] = target: T3, Factor VIII:C 80 K light chain encoded by pSVF8-80S (human, UniProt P00451); assay: cell-based or functional assay
T3 chain: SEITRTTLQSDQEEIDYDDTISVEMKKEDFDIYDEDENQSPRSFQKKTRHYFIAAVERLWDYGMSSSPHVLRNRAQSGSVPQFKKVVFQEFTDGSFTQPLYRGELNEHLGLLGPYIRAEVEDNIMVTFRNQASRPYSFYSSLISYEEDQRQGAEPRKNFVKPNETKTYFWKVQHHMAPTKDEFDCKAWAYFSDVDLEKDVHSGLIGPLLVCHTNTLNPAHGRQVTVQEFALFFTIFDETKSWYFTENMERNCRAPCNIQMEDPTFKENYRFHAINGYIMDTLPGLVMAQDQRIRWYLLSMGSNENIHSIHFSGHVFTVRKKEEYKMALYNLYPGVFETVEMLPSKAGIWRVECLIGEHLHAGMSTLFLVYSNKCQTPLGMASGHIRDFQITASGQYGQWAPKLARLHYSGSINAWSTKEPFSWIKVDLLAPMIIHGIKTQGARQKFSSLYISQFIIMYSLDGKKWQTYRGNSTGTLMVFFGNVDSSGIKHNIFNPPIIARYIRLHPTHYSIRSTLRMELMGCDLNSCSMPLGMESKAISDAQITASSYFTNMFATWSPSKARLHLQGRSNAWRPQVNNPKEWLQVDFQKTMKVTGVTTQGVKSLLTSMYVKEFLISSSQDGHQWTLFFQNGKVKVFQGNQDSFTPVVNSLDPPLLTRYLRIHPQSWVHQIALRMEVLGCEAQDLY

## 1323 amino acid Factor VIII:C heavy chain encoded by pSVF8-160 (from UniProt P00451)
[1]
  ratio of RIA to COATEST activity: 1.8

## 1416 amino acid Factor VIII:C heavy chain encoded by pSVF8-170 (from UniProt P00451)
[1]
  ratio of RIA to COATEST activity: 1.8

## Factor VIII:C 92 K heavy chain encoded by pCMVF8-92/6x (from UniProt P00451)
[2]
  COA (COATEST) mU/mL, cotransfected COS7 cells: 87 mU/mL

## Factor VIII:C 92 K heavy chain encoded by pSVF8-92C (from UniProt P00451)
[2]
  COA (COATEST) mU/mL, cotransfected COS7 cells: 46 mU/mL
[3]
  mU COATEST/mL (stable CHO cell line 11-D6): 43 mU/mL

## Factor VIII:C Mr 92 K heavy chain encoded by pSVF8-92E (from UniProt P00451)
[1]
  ratio of RIA to COATEST activity: 7.2
[4]
  COATEST (mU/mL) (stable CHO clone 10C2-D2, 0.05 uM methotrexate): 496 mU/mL
[5]
  Factor VIII:C activity of medium of COS7 cells cotransfected with pSVF8-80: 1.65 fold

## Factor VIII:C Mr 92 K polypeptide (FVIII-HC) encoded by pSVF8-92 (from UniProt P00451)
[6]
  COATEST Activity mU/mL (medium of cotransfected COS7 cells): 20.4 mU/mL
  COATEST Activity mU/mL (supernatants of separate transfectants mixed): < 0.1 mU/mL
  Coagulation Activity mU/mL (one-stage assay, medium of cotransfected COS7 cells): 22.5 mU/mL
  Coagulation Activity mU/mL (supernatants of separate transfectants mixed): < 0.9 mU/mL

B1: purified recombinant FVIII:C heavy chains (from full-length human FVIII:C) (other)
chain: ATRRYYLGAVELSWDYMQSDLGELPVDARFPPRVPKSFPFNTSVVYKKTLFVEFTDHLFNIAKPRPPWMGLLGPTIQAEVYDTVVITLKNMASHPVSLHAVGVSYWKASEGAEYDDQTSQREKEDDKVFPGGSHTYVWQVLKENGPMASDPLCLTYSYLSHVDLVKDLNSGLIGALLVCREGSLAKEKTQTLHKFILLFAVFDEGKSWHSETKNSLMQDRDAASARAWPKMHTVNGYVNRSLPGLIGCHRKSVYWHVIGMGTTPEVHSIFLEGHTFLVRNHRQASLEISPITFLTAQTLLMDLGQFLLFCHISSHQHDGMEAYVKVDSCPEEPQLRMKNNEEAEDYDDDLTDSEMDVVRFDDDNSPSFIQIRSVAKKHPKTWVHYIAAEEEDWDYAPLVLAPDDRSYKSQYLNNGPQRIGRKYKKVRFMAYTDETFKTREAIQHESGILGPLLYGEVGDTLLIIFKNQASRPYNIYPHGITDVRPLYSRRLPKGVKHLKDFPILPGEIFKYKWTVTVEDGPTKSDPRCLTRYYSSFVNMERDLASGLIGPLLICYKESVDQRGNQIMSDKRNVILFSVFDENRSWYLTENIQRFLPNPAGVQLEDPEFQASNIMHSINGYVFDSLQLSVCLHEVAYWYILSIGAQTDFLSVFFSGYTFKHKMVYEDTLTLFPFSGETVFMSMENPGLWILGCHNSDFRNRGMTALLKVSSCDKNTGDYYEDSYEDISAYLLSKNNAIEPR
[7]
  Percent Control Activity (COATEST after in vitro combination of purified chains): 86 percent of control activity
[8]
  Percent Control Activity (COATEST after in vitro combination of purified chains): 92 percent of control activity
[9]
  Percent Control Activity (COATEST after in vitro combination of purified chains): 233 percent of control activity
[10]
  Percent Control Activity (COATEST after in vitro combination of purified chains): 51 percent of control activity
